In data set [1] the test system is DinJ (Lacticaseibacillus paracasei 4366). The data set can be described thus: EMSA. The following applies: KDapp, Hill n 3.7 ± 0.2; salmon sperm DNA competitor; EMSA: 2 nM DNA, 128 ng salmon sperm DNA in 10 uL, 50 mM Tris-HCl pH 7.5, 50 mM KCl, 5% glycerol, room temperature 10 min, 6% native PAGE in TBE; RNAP ….
Data set [2] deals with the molecule itself. The data set can be described thus: cross-linking; glutaraldehyde 0.1%, then SDS-PAGE; DinJ at 4 and 10 uM, DinJ-YafQ at 2 and 4 uM.

194-bp dinJ-yafQ promoter fragment gave a Kd in data set [1] of 61 nM.

B1: His-tagged DinJ (L. paracasei antitoxin DinJ, N-terminal hexa-His tag) (natural protein)
chain: MSNEKRETRLSIRIDPALKEAAQNVANDMGMDLSTAVNMFLAKIVKDHALPFTPTSLPAETLQALKEAKSSRVLKRYRTPEVMWKDLEV
B1: the “stoichiometry N” value in data set [2] was 2.

The term stoichiometry N denotes a count of units in the complex or per binding partner.
